Experimental data published in US20120316071A1 (published 2012).

Target: T1, Recombinant Human DLL4 (delta-like protein 4) (human, UniProt Q9NR61 27-524)
T1 construct: Bought recombinant human DLL4 (R&D Systems Cat#1506-D4/CF) coated on the ELISA plate; also called rHuman DLL4; Delta-like ligand 4
Assay: ELISA, DLL4 coated on plate, 100 nM Fab

| Binder | ELISA Signal-blank (100 nM Fab) |
| --- | --- |
| Fab VH5-51_IGHD5-18*01>3_IGHJ4*01 G100K/G104T G24T/S28R/G35V (H:KT TRV) & V3-4_IGLJ1*01 V91L/S96P S57Y (Fab, V domains shown, Fab made in E. coli: VH in plasmid A (CH1, His6 and Flag tags), VL in plasmid E (lambda CL); also called H:KT TRV & L:LP S57Y) VH: EVQLVQSGAEVKKPGESLKISCKTSGYRFTSYWIVWVRQMPGKGLEWMGIIYPGDSDTRYSPSFQGQVTISADKSISTAYLQWSSLKASDTAMYYCARRKYSYTYDYFDYWGQGTLVTVSS VL: QTVVTQEPSFSVSPGGTVTLTCGLSSGSVSTSYYPSWYQQTPGQAPRTLIYSTNTRYSGVPDRFSGSILGNKAALTITGAQADDESDYYCLLYMGPGISYVFGTGTKVTVL | 0.28 |
| Fab VH5-51_IGHD5-18*01>3_IGHJ4*01 G100K/G104T G24T/S28R/G35V (H:KT TRV) & V3-4_IGLJ1*01 V91L/S96P T53R (Fab, V domains shown, Fab made in E. coli: VH in plasmid A (CH1, His6 and Flag tags), VL in plasmid E (lambda CL); also called H:KT TRV & L:LP T53R) VH: EVQLVQSGAEVKKPGESLKISCKTSGYRFTSYWIVWVRQMPGKGLEWMGIIYPGDSDTRYSPSFQGQVTISADKSISTAYLQWSSLKASDTAMYYCARRKYSYTYDYFDYWGQGTLVTVSS VL: QTVVTQEPSFSVSPGGTVTLTCGLSSGSVSTSYYPSWYQQTPGQAPRTLIYSRNTRSSGVPDRFSGSILGNKAALTITGAQADDESDYYCLLYMGPGISYVFGTGTKVTVL | 0.05 |
| Fab VH5-51_IGHD5-18*01>3_IGHJ4*01 G100K/G104T G24T/S28R/G35V (H:KT TRV) & V3-4_IGLJ1*01 V91L/S96P S57N (Fab, V domains shown, Fab made in E. coli: VH in plasmid A (CH1, His6 and Flag tags), VL in plasmid E (lambda CL); also called H:KT TRV & L:LP S57N) VH: EVQLVQSGAEVKKPGESLKISCKTSGYRFTSYWIVWVRQMPGKGLEWMGIIYPGDSDTRYSPSFQGQVTISADKSISTAYLQWSSLKASDTAMYYCARRKYSYTYDYFDYWGQGTLVTVSS VL: QTVVTQEPSFSVSPGGTVTLTCGLSSGSVSTSYYPSWYQQTPGQAPRTLIYSTNTRNSGVPDRFSGSILGNKAALTITGAQADDESDYYCLLYMGPGISYVFGTGTKVTVL | 0.24 |
| Fab VH5-51_IGHD5-18*01>3_IGHJ4*01 G100K/G104T G24T/S28R/G35V (H:KT TRV) & V3-4_IGLJ1*01 V91L/S96P S57T (Fab, V domains shown, Fab made in E. coli: VH in plasmid A (CH1, His6 and Flag tags), VL in plasmid E (lambda CL); also called H:KT TRV & L:LP S57T) VH: EVQLVQSGAEVKKPGESLKISCKTSGYRFTSYWIVWVRQMPGKGLEWMGIIYPGDSDTRYSPSFQGQVTISADKSISTAYLQWSSLKASDTAMYYCARRKYSYTYDYFDYWGQGTLVTVSS VL: QTVVTQEPSFSVSPGGTVTLTCGLSSGSVSTSYYPSWYQQTPGQAPRTLIYSTNTRTSGVPDRFSGSILGNKAALTITGAQADDESDYYCLLYMGPGISYVFGTGTKVTVL | 0.3 |
| Fab VH5-51_IGHD5-18*01>3_IGHJ4*01 G100K/G104T G24T/S28R/G35V (H:KT TRV) & V3-4_IGLJ1*01 V91L/S96P S57R (Fab, V domains shown, Fab made in E. coli: VH in plasmid A (CH1, His6 and Flag tags), VL in plasmid E (lambda CL); also called H:KT TRV & L:LP S57R) VH: EVQLVQSGAEVKKPGESLKISCKTSGYRFTSYWIVWVRQMPGKGLEWMGIIYPGDSDTRYSPSFQGQVTISADKSISTAYLQWSSLKASDTAMYYCARRKYSYTYDYFDYWGQGTLVTVSS VL: QTVVTQEPSFSVSPGGTVTLTCGLSSGSVSTSYYPSWYQQTPGQAPRTLIYSTNTRRSGVPDRFSGSILGNKAALTITGAQADDESDYYCLLYMGPGISYVFGTGTKVTVL | 0.18 |
| Fab VH5-51_IGHD5-18*01>3_IGHJ4*01 G100K/G104T G24T/S28R/G35V (H:KT TRV) & V3-4_IGLJ1*01 V91L/S96P S57W (Fab, V domains shown, Fab made in E. coli: VH in plasmid A (CH1, His6 and Flag tags), VL in plasmid E (lambda CL); also called H:KT TRV & L:LP S57W) VH: EVQLVQSGAEVKKPGESLKISCKTSGYRFTSYWIVWVRQMPGKGLEWMGIIYPGDSDTRYSPSFQGQVTISADKSISTAYLQWSSLKASDTAMYYCARRKYSYTYDYFDYWGQGTLVTVSS VL: QTVVTQEPSFSVSPGGTVTLTCGLSSGSVSTSYYPSWYQQTPGQAPRTLIYSTNTRWSGVPDRFSGSILGNKAALTITGAQADDESDYYCLLYMGPGISYVFGTGTKVTVL | 0.12 |
| Fab VH5-51_IGHD5-18*01>3_IGHJ4*01 G100K/G104T G24T/S28R/G35V (H:KT TRV) & V3-4_IGLJ1*01 V91L/S96P S57M (Fab, V domains shown, Fab made in E. coli: VH in plasmid A (CH1, His6 and Flag tags), VL in plasmid E (lambda CL); also called H:KT TRV & L:LP S57M) VH: EVQLVQSGAEVKKPGESLKISCKTSGYRFTSYWIVWVRQMPGKGLEWMGIIYPGDSDTRYSPSFQGQVTISADKSISTAYLQWSSLKASDTAMYYCARRKYSYTYDYFDYWGQGTLVTVSS VL: QTVVTQEPSFSVSPGGTVTLTCGLSSGSVSTSYYPSWYQQTPGQAPRTLIYSTNTRMSGVPDRFSGSILGNKAALTITGAQADDESDYYCLLYMGPGISYVFGTGTKVTVL | 0.3 |

Next, values leading:

| ELISA Signal-blank (100 nM Fab) | Binder |
| --- | --- |
| 0.24 | Fab VH5-51_IGHD5-18*01>3_IGHJ4*01 G100K/G104T G24T/S28R/G35V (H:KT TRV) & V3-4_IGLJ1*01 V91L/S96P S57I (Fab, V domains shown, Fab made in E. coli: VH in plasmid A (CH1, His6 and Flag tags), VL in plasmid E (lambda CL); also called H:KT TRV & L:LP S57I) VH: EVQLVQSGAEVKKPGESLKISCKTSGYRFTSYWIVWVRQMPGKGLEWMGIIYPGDSDTRYSPSFQGQVTISADKSISTAYLQWSSLKASDTAMYYCARRKYSYTYDYFDYWGQGTLVTVSS VL: QTVVTQEPSFSVSPGGTVTLTCGLSSGSVSTSYYPSWYQQTPGQAPRTLIYSTNTRISGVPDRFSGSILGNKAALTITGAQADDESDYYCLLYMGPGISYVFGTGTKVTVL |
| 0.17 | Fab VH5-51_IGHD5-18*01>3_IGHJ4*01 G100K/G104T G24T/S28R/G35V (H:KT TRV) & V3-4_IGLJ1*01 V91L/S96P S57K (Fab, V domains shown, Fab made in E. coli: VH in plasmid A (CH1, His6 and Flag tags), VL in plasmid E (lambda CL); also called H:KT TRV & L:LP S57K) VH: EVQLVQSGAEVKKPGESLKISCKTSGYRFTSYWIVWVRQMPGKGLEWMGIIYPGDSDTRYSPSFQGQVTISADKSISTAYLQWSSLKASDTAMYYCARRKYSYTYDYFDYWGQGTLVTVSS VL: QTVVTQEPSFSVSPGGTVTLTCGLSSGSVSTSYYPSWYQQTPGQAPRTLIYSTNTRKSGVPDRFSGSILGNKAALTITGAQADDESDYYCLLYMGPGISYVFGTGTKVTVL |
| 0.36 | Fab VH5-51_IGHD5-18*01>3_IGHJ4*01 G100K/G104T G24T/S28R/G35V (H:KT TRV) & V3-4_IGLJ1*01 V91L/S96P S57P (Fab, V domains shown, Fab made in E. coli: VH in plasmid A (CH1, His6 and Flag tags), VL in plasmid E (lambda CL); also called H:KT TRV & L:LP S57P) VH: EVQLVQSGAEVKKPGESLKISCKTSGYRFTSYWIVWVRQMPGKGLEWMGIIYPGDSDTRYSPSFQGQVTISADKSISTAYLQWSSLKASDTAMYYCARRKYSYTYDYFDYWGQGTLVTVSS VL: QTVVTQEPSFSVSPGGTVTLTCGLSSGSVSTSYYPSWYQQTPGQAPRTLIYSTNTRPSGVPDRFSGSILGNKAALTITGAQADDESDYYCLLYMGPGISYVFGTGTKVTVL |
